2 molecules from patent US20230121197A1, “ANTIBODIES SPECIFICALLY BINDING THE CARBOXYMETHYLATED CATALYTIC SUBUNIT OF PROTEIN PHOSPHATASE 2A” (Medizinische Universität Wien, priority 2020, published 2023) can be followed below.

In assay [1] the target is T1, PP6c C-terminal peptide L305, ac-IPPRTTTPYFL (non-methylated) (human).
T1 construct: also called PP6 L305
T1 peptide: Ac-IPPRTTTPYFL
In words: ELISA, values normalized to meL309, Neg = TBS only, N=7. The text has this: (§1) FIG. 9: Monoclonal antibody 7C10-C5 detects α-carboxymethylated PP2Ac C-terminal peptides with >10-fold higher signal intensity than the α-carboxymethylated PP4c and PP6c C-terminal peptides in ELISA. Nunc Medisorp 96-well ELISA flat-bottom plates were coated with PP2Ac peptides L309 (ac-[…]) (SEQ ID NO:18), meL309 (ac-[…]-CH3) (SEQ ID NO:18), PP4c peptides L307 (ac-[…]) (SEQ ID NO:20), meL307 (ac-[…]-CH₃) (SEQ ID NO:20), PP6c peptides L305 (ac-[…]) (SEQ ID NO:22) or meL305 (ac-[…]-CH₃) (SEQ ID NO:22) at 2 μg/ml in TBS or TBS only (Neg) at 4° C. over-night. After washing once with TBS, the wells were incubated with 2% BSA in TBS for 1 h at RT. After washing once with TBS, the wells were incubated with single clone hybridoma cell culture supernatant, clone 7C10-C5 1:50 for 1 h at RT. After washing twice with TBS, wells were incubated with anti-mouse and anti rabbit HRP-coupled secondary antibody for 1 h at RT, followed by washing 3× in PBS. Bound antibodies were detected by colorimetric reaction with 3,3′,5,5′-Tetramethylbenzidine as substrate, and absorbance was measured at 450 nm. Values were normalized to meL309 which was set to 1. Average and standard deviation of N=7 experiments are shown. […] Statistical significance was assessed using ANOVA followed by Tukey's HSD as a post-hoc test. […]

Assay [2] concerns the target T2, PP6c C-terminal peptide meL305, ac-IPPRTTTPYFL-CH3 (α-carboxymethylated) (human, SMILES …).
T2 construct: also called PP6 meLeu305
T2 peptide: Ac-IPPRTTTPYFL-OMe
The assay is described as above.
Text: as §1

For a further assay, the target named is T3, PP2Ac (Homo sapiens, UniProt P67775).
T3 construct: the carboxy-terminal methyl group was chemically removed from cellular PP2Ac; endogenous in cells; host or cells: HAP1 wild type, HAP1 Lcmt-1-KO, HEK293Trex / HEK293T
T3 sequence (P67775 whole entry): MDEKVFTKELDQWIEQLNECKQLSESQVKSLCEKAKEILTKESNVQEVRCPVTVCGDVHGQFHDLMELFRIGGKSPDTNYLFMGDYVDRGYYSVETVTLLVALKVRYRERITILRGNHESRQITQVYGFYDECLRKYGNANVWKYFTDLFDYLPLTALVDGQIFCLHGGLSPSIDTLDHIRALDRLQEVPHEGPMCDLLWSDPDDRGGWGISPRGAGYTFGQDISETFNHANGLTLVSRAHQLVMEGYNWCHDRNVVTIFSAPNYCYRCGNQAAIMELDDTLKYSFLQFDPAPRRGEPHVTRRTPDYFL
In words: Western blot of human cell lysates (HAP1, HEK293; NaOH treatment, Lcmt-1-KO). The format is binding. As for the experimental part:
NIH3T3 mouse fibroblasts and human embryonic kidney cells (HEK293Trex) were grown in DMEM+10% FCS+2 mM L-glutamine (Sigma, G2150)+100 units/ml Penicillin/0.1 mg/ml Streptomycin at 37° C. in a 7.5% CO2 atmosphere. HAP1 wild type and HAP1 Lcmt-1-KO cells (Leucine carboxyl methyltransferase 1 deleted by CRISPR/Cas9; Horizon Discovery, #C631 and #HZGHC004373c001) were grown in Iscove's Modified Dulbecco's Medium (IMDM, Thermo Fischer Scientific, Life Technologies #12440053) supplemented with 10% (v/v) Fetal Calf Serum (FCS) (Sigma #F7524, lot 104M3333), GlutaMAX™ (Thermo Fischer Scientific, Life Technologies #35050-38, lot 1895829), and Penicillin-Streptomycin solution (Sigma, #P4333, lot 125M4781V) in a 5% CO2 atmosphere. Of note, HAP1 is a near-haploid human cell line that was derived from the chronic myelogenous leukemia (CML) cell line KBM-7 (Carette (2011), Nature 477(7364):340-3). For cell lysis, exponentially growing cells were washed once with ice-cold PBS, once with ice-cold IP-Wash buffer (20 mmol/l Tris pH 8.0, 135 mmol/l NaCl, 10% glycerol) and lysed on the petri-dish in ice-cold IP-Lyse buffer (18 mmol/l Tris pH 8.0, 122 mmol/l NaCl, 9% glycerol, 1% w/v NP-40) for 20 min at 4° C. rocking. Lysed cells were transferred to Eppendorf 1.5 ml tubes and centrifuged for 15 min at 14,000 rpm at 4° C. in a Beckman & Coulter Microfuge 18 centrifuge. The protein concentration was determined with the Protein Assay Dye Reagent (Biorad, 500-0006) and measurement of absorbance at 595 nm in a Hitachi U-2000 spectrophotometer. […]
To test these antibodies in the western blot analysis with methylated and non-methylated full-length PP2Ac the methyl group was chemically removed from cellular PP2Ac by treating lysates of the human cell line, HAP1, with NaOH, as described in Example 2. […] In agreement with the results of the NaOH experiments, […] of PP2Ac were detected in HAP1 cells that lack the PP2A methyltransferase LCMT-1 indicating the preference of these antibodies for non-methylated PP2Ac (FIG. 22). […]
(Immunoblotting shows a protein as a band on a membrane.)

No end group written: not given here.

B1: 7C10-C5 monoclonal antibody (antibody, V domains shown)
VH: DVQLQESGPGLVKPSQSLSLTCSVTGYSITSGYYWNWIRQFPGNKLEWMGYISYDGSNNYNPSLKNRISITRDTSKNQFFLKLNSVTTEDTATYYCAGRFAYWGQGTLVTVSA
VL: DVLMTQTPLSLPVSLGDQASISCRSSQSIVHSNGNTYLEWYLQKPGQSPKLLIYKVSNRFSGVPDRFSGSGSGTDFTLKINRVEAEDLGVYYCFQGSHVPWTFGGGTKLEIK
notes: Used as hybridoma culture supernatant (ELISA, Western blot, IHC) or at 50 µg/mL (SPR); also called 7C10 X63; clone 7C10-C5
Take B1: the binding result in assay [1] and in assay [2] was “no binding” in each case.

B2: 7C10-C5: α-carboxymethylation specific mouse monoclonal IgG1 antibody from single clone hybridoma 7C10-C5 (DSM ACC3350) (antibody)
heavy: MYRMQLLSCIALSLALVTNSDVQLQESGPGLVKPSQSLSLTCSVTGYSITSGYYWNWIRQFPGNKLEWMGYISYDGSNNYNPSLKNRISITRDTSKNQFFLKLNSVTTEDTATYYCAGRFAYWGQGTLVTVSAAKTTAPSVYPLAPVCGDTTGSSVTLGCLVKGYFPEPVTLTWNSGSLSSGVHTFPAVLQSDLYTLSSSVTVTSSTWPSQSITCNVAHPASSTKVDKKIEPRGPTIKPCPPCKCPAPNLLGGPSVFIFPPKIKDVLMISLSPIVTCVVVDVSEDDPDVQISWFVNNVEVHTAQTQTHREDYNSTLRVVSALPIQHQDWMSGKEFKCKVNNKDLPAPIERTISKPKGSVRAPQVYVLPPPEEEMTKKQVTLTCMVTDFMPEDIYVEWTNNGKTELNYKNTEPVLDSDGSYFMYSKLRVEKKNWVERNSYSCSVVHEGLHNHHTTKSFSRTPGK
light: MDMRVPAQLLGLLLLWLSGARCDVLMTQTPLSLPVSLGDQASISCRSSQSIVHSNGNTYLEWYLQKPGQSPKLLIYKVSNRFSGVPDRFSGSGSGTDFTLKINRVEAEDLGVYYCFQGSHVPWTFGGGTKLEIKADAAPTVSIFPPSSEQLTSGGASVVCFLNNFYPKDINVKWKIDGSERQNGVLNSWTDQDSKDSTYSMSSTLTLTKDEYERHNSYTCEATHKTSTSPIVKSFNRNEC
modifications: Amino acid sequence of the recombinant 7C10-C5 heavy chain; Amino acid sequence of the recombinant 7C10-C5 light chain
On to B2, for which the “detection of PP2Ac in HAP1 cells that lack LCMT-1 (Lcmt-1-KO)” value in the assay with PP2Ac is “no carboxymethylated PP2Ac specific signals were detected”. Moreover, in the assay with PP2Ac (HAP1, HEK293), the “detection of PP2Ac in untreated versus NaOH treated cell lysates” value is recorded as “only detected methylated PP2Ac in the untreated cell lysates but not in the NaOH treated lysates”.
